According to US20240011031, “COMPOSITIONS COMPRISING A NUCLEASE AND USES THEREOF” (Arbor Biotechnologies, Inc., published 2024):

Experiments:
[1] = molecular target: T1, Effector SEQ ID NO: 2 (CLUST.200916 nuclease); experiment: GFP fluorescence depletion in IVTT, 37 C, 12 h; PAM 5'-CCCA-3'
T1 chain: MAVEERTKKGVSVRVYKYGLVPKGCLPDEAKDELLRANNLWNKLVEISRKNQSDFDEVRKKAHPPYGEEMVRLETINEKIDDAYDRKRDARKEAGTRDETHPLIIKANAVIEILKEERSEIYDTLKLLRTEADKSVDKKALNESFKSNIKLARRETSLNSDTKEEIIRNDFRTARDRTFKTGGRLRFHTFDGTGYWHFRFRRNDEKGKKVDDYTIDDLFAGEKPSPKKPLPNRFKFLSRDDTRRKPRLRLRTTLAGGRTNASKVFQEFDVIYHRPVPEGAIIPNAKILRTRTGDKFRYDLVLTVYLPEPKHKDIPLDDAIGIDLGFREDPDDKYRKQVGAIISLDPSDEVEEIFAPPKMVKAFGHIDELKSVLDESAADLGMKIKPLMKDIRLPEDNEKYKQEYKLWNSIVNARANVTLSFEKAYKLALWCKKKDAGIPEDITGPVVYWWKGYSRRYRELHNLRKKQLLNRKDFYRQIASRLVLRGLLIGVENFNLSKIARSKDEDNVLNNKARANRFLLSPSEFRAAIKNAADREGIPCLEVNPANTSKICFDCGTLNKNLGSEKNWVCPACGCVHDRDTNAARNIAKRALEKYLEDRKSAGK
Source text: (§1) In this assay, an active CRISPR system designed to target GFP binds and cleaves the double-stranded DNA region encoding GFP, resulting in depletion of GFP fluorescence. The FDA assay involves in vitro transcription and translation, allowing production of an RNP from a DNA template encoding a CLUST.200916 effector and a DNA template containing a pre-crRNA sequence under a T7 promoter with direct repeat (DR)-spacer-direct repeat (DR); the spacer targeted GFP. In the same one-pot reaction, GFP and RFP were also produced as both the target and the fluorescence reporter (FIG. SA). The target GFP plasmid sequence is set forth in SEQ ID NO: 205, and the fluorescence reporter RFP plasmid sequence is set forth in SEQ ID NO: 206. GFP and RFP fluorescence values were measured every 20 min at 37° C. for 12 hr, using a TECAN Infinite F Plex plate reader. Since RFP was not targeted, its fluorescence was not affected and was therefore used as an internal signal control.
(§2) GFP signal was normalized to RFP signal, then the average fluorescence of three technical replicates was taken at each time point. GFP fluorescence depletion was then calculated by dividing the GFP signal of an effector incubated with a non-GFP targeting RNA guide (which instead targets a kanamycin resistance gene) by the GFP signal of an effector incubated with a GFP targeting RNA guide. […]

[2] = molecular target: T1, Effector SEQ ID NO: 2 (CLUST.200916 …); experiment: GFP fluorescence depletion in IVTT, 37 C, 12 h; PAM 5'-TCCA-3'
Source text: as §1, §2

[3] = molecular target: T1, Effector SEQ ID NO: 2 (CLUST.200916 …); experiment: GFP fluorescence depletion in IVTT, 37 C, 12 h; PAM 5'-TCCT-3'
Source text: as §1, §2

[4] = molecular target: T1, Effector SEQ ID NO: 2 (CLUST.200916 …); experiment: GFP fluorescence depletion in IVTT, 37 C, 12 h; PAM 5'-ACCG-3'
Source text: as §1, §2

[5] = molecular target: T1, Effector SEQ ID NO: 2 (CLUST.200916 …); experiment: GFP fluorescence depletion in IVTT, 37 C, 12 h; PAM 5'-CCCG-3'
Source text: as §1, §2

B1: pre-crRNA GFP Target 1 ; GFP Target 1 (ssRNA ; dsDNA)
RNA: GGUAUAACGACCCUGCGAAGUGGGGUGUAACUUCGACAGAGCGUACCAUCAGCUUCGAAGGCGACGGGUAUAACGACCCUGCGAAGUGGGGUGUAACUUCGACCUAACCCCUCUCUAAACGGAGGGGUUU
DNA 1: AGAGCGTACCATCAGCTTCGAAGGCGACGG
DNA 2: CCGTCGCCTTCGAAGCTGATGGTACGCTCT
In the case of B1, the activity [1] is reported as greater than 1 depletion ratio.

B2: pre-crRNA GFP Target 5 ; GFP Target 5 (ssRNA ; dsDNA)
RNA: GGUAUAACGACCCUGCGAAGUGGGGUGUAACUUCGACUGACGGCAUUGACGGAAGGUGCAAAACUGUGUAUAACGACCCUGCGAAGUGGGGUGUAACUUCGACCUAACCCCUCUCUAAACGGAGGGGUUU
DNA 1: TGACGGCATTGACGGAAGGTGCAAAACTGT
DNA 2: ACAGTTTTGCACCTTCCGTCAATGCCGTCA
Work on B2 yielded an activity [2] greater than 1 depletion ratio.

B3: pre-crRNA GFP Target 4 ; GFP Target 4 (ssRNA ; dsDNA)
RNA: GGUAUAACGACCCUGCGAAGUGGGGUGUAACUUCGACUGAUGUGGCUCGGGUACUUGGCGAAACACUGUAUAACGACCCUGCGAAGUGGGGUGUAACUUCGACCUAACCCCUCUCUAAACGGAGGGGUUU
DNA 1: TGATGTGGCTCGGGTACTTGGCGAAACACT
DNA 2: AGTGTTTCGCCAAGTACCCGAGCCACATCA
B3 showed an activity [3] greater than 1 depletion ratio.

B4: pre-crRNA GFP Target 2 ; GFP Target 2 (ssRNA ; dsDNA)
RNA: GGUAUAACGACCCUGCGAAGUGGGGUGUAACUUCGACAAAAACUGGUUACCAAAUGCAGCCAAAUGAGUAUAACGACCCUGCGAAGUGGGGUGUAACUUCGACCUAACCCCUCUCUAAACGGAGGGGUUU
DNA 1: AAAAACTGGTTACCAAATGCAGCCAAATGA
DNA 2: TCATTTGGCTGCATTTGGTAACCAGTTTTT
Work on B4 yielded an activity [4] greater than 1 depletion ratio.

B5: pre-crRNA GFP Target 3 ; GFP Target 3 (ssRNA ; dsDNA)
RNA: GGUAUAACGACCCUGCGAAGUGGGGUGUAACUUCGACUAGUGCAGAUGUAUUUCGCUUUAAUGGUACGUAUAACGACCCUGCGAAGUGGGGUGUAACUUCGACCUAACCCCUCUCUAAACGGAGGGGUUU
DNA 1: TAGTGCAGATGTATTTCGCTTTAATGGTAC
DNA 2: GTACCATTAAAGCGAAATACATCTGCACTA
Binder B5 has an activity [5] greater than 1 depletion ratio.
